{
  "source": "patent US20070014736A1",
  "about": "“Methods of delivering corticotroph-derived glycoprotein hormone” (priority 2005, published 2007)",
  "molecules": {"B1": {"name": "CGH: heterodimeric protein hormone comprised of alpha subunit GPHA2 and beta subunit GPHB5, recombinantly produced in CHO cells (protein)", "chain 1": "QEAVIPGCHLHPFNVTVRSDRQGTCQGSHVAQACVGHCESSAFPSRYSVLVASGYRHNITSVSQCCTISGLKKVKVQLQCVGSRREELEIFTARACQCDMCRLSRY", "chain 2": "ASSGNLRTFVGCAVREFTFLAKKPGCRGLRITTDACWGRCETWEKPILEPPYIEAHHRVCTYNETKQVTVKLPNCAPGVDPFYTYPVAIRCDCGACSTATTECETI"}},
  "key": {"NCI-H295R": {"system": "NCI-H295R", "assay": "CRE-luciferase reporter assay in NCI-H295R adrenal cortex cells", "assay_type": "cell-based, human", "excerpt": "Summary: A human adrenal cortex cell line, NCI-H295R, was used to study signal transduction of CGH. NCI-H295R was transduced with recombinant adenovirus containing a reporter construct, a firefly luciferase gene under the control of cAMP response element (CRE) enhancer sequences. This assay system detects cAMP-mediated gene induction downstream of activation of Gs-coupled GPCR's (G-protein coupled receptors). […] Typically, CGH elicited a maximal response of 15-40-fold luciferase induction above control media.\nNCI-H295R cells were obtained from the ATCC (CRL-2128, Manassas, Va.) and cultured in growth medium as follows: 1:1 mixture of Dulbecco's modified Eagle's medium and Ham's F12 medium with L-glutamine (D-MEM/F-12; GIBCO, cat.#11320-033) containing 25 mM HEPES buffer (GIBCO, Invitrogen, Carlsbad, Calif., cat.#15630-080), 1 mM sodium pyruvate (GIBCO, cat.#11360-070), 1% ITS+1 media supplement (Sigma St. Louis, Mo. cat#I2521) and 2.5% Nu-Se I (BD Biosciences, Lexington, Ky. cat.#355100). Cells were cultured at 37° C. in a 5% CO2 humidified incubator. […]\nPromega's Luciferase Assay System (Promega, Madison, Wis., cat. #E1500) was used to process the treated cells. […] Luciferase activity was measured on a microplate luminometer (PerkinElmer Life Sciences, Inc., model LB 96V2R) following automated injection of luciferase assay substrate."}, "[1]": {"system": "Delayed Type Hypersensitivity (DTH) reaction", "assay": "Delayed Type Hypersensitivity (DTH), change in ear thickness", "assay_type": "in vivo, mice"}, "[2]": {"system": "neutrophil infiltration in the ears", "assay": "Neutrophil (Gr-1) histomorphometry of ears in DTH experiment #1", "assay_type": "in vivo, mice", "experimental": "Ears from mice in DTH experiment #1 were analyzed by immunohistochemistry to assess which cell types were most affected by CGH treatment. Ears were fixed in Zinc/Tris buffer (2.3 mM calcium acetate/31.6 mM zinc acetate/36.7 mM zinc chloride in 0.1M Tris-HCL buffer, pH 7.4) for 24 hours at room temperature and stained with antibodies specific for CD4, CD8, CD11c, and Gr-1 (neutrophils). […] Ears were stained using a TechMate 500 autoimmunostainer (Biotech/Ventana) MIP protocol with some modifications. […] This step was followed, after a wash, by biotinylated rabbit anti-rat IgG secondary antibody (Dako, used at 10 ug/ml in PBS with 2% normal rabbit serum and 2% nonfat dry milk) for 45 min. The sections were then washed and treated with HP Block (1.5% H2O2 in 50% methanol) 3 times, 7 min each, followed by 25 min in avidin-biotin complex, 3 times of 4 min each in DAB (Diaminobenzidine), then with Methyl green for 10 min.\nFrom this staining procedure, there was a clear reduction in the number of neutrophils infiltrating the ears of those mice treated with CGH or Dex, compared to the PBS-treated controls. Histomorphometry was performed to obtain the average pixel density of neutrophils per unit length (1 mm) present in the ear samples. Despite a fair amount of variability among each group, there was a significant reduction in neutrophil staining in the Dex and low dose CGH groups, as well as a nearly significant (p=0.0507) reduction in the high dose CGH group (see TABLE 5, p values)."}, "thymus": {"system": "thymus", "design": "species or system mice", "conditions": "mouse, in vivo", "excerpt": "Since the receptor for CGH, TSH-R, is expressed by the adrenal glands, there was concern that the anti-inflammatory effects observed might be an indirect effect of increasing endogenous corticosteroid production in CGH-treated mice. One well-established side effect of increasing either exogenous or endogenous corticosteroid levels is substantial atrophy of the thymus, as the developing T cells are induced to undergo apoptosis. Therefore, the thymuses of the CGH and Dex-treated mice in the DTH experiments were analyzed. […] Thus, CGH seems to be mediating its anti-inflammatory effects in a manner distinct from that of exgenous glucocorticoids like Dex."}, "TSHR": {"system": "TSHR", "assay": "Binding of 125I-CGH and 125I-TSH to BHK cells expressing the TSHR", "design": "species or system murine or human", "conditions": "increasing amounts of unlabeled protein", "experimental": "BHK cells expressing murine or human TSHRs were cultured in Dulbecco's Modified Eagle's Medium [DMEM (high glucose)] containing 5% fetal bovine serum, 1% Glutamax, 1% sodium pyruvate, 250 nM methotrexate, and Geneticin ( 1/100). […] Plates of cells were placed on ice and washed twice with 1.0-2.0 ml of ice-cold PBS. […] Specific binding was determined in the presence (nonspecific binding) and absence (total binding) of unlabeled rhCGH (25.0 μg/ml) or TSH (10 μg/ml). Binding reactions were terminated by removing the binding medium and the cell monolayers were washed three times with 1.0-2.0 ml of ice-cold PBS containing 1.0 mg/ml BSA and twice with 1.0-2.0 ml of ice cold albumin-free PBS. Cells were solubilized in 1.0 ml of 1.0N NaOH for 10 min at room temperature and cell-associated radioactivity was determined in a gamma counter. The measured radioactivity was normalized to cell number that was determined on plates of cells cultured in parallel. Binding data were analyzed by non-linear regression using Prizm 3.0 (GraphPad Software, San Diego, Calif.)."}, "[3]": {"conditions": "Expt 1, 0.2 mg/kg CGH i.p. at challenge (d7), 24 h"}, "[4]": {"conditions": "Expt 1, 2.0 mg/kg CGH i.p. at challenge (d7), 24 h"}, "[5]": {"conditions": "Expt 2, 0.2 mg/kg CGH i.p. at challenge (d7)"}, "[6]": {"conditions": "Expt 2, 2.0 mg/kg CGH i.p. at challenge (d7)"}, "[7]": {"conditions": "Expt 3, 0.2 mg/kg CGH i.p. at sensitization (d0-4)"}, "[8]": {"conditions": "Expt 3, 2.0 mg/kg CGH i.p. at sensitization (d0-4)"}, "[9]": {"conditions": "0.2 mg/kg CGH i.p. at challenge (day 7)"}, "[10]": {"conditions": "2 mg/kg CGH i.p. at challenge (day 7)"}},
  "data": [
    {"molecule": "B1", "values": [
      {"measurement": "maximal response, luciferase induction above control media", "setting": "NCI-H295R; CRE-luciferase, 4 h", "value": "15-40 fold"},
      {"measurement": "induction of luciferase activity compared with 10 μM forskolin", "setting": "NCI-H295R; dose-dependent", "value": "equal to or higher than that induced by 10 μM forskolin"},
      {"measurement": "Change in ear thickness, left ear (PBS)", "setting": "[1]; [3]", "value": "0.17 +/− 0.95 ×10^−3 inch"},
      {"measurement": "Change in ear thickness, right ear (OVA)", "setting": "[1]; [3]", "value": "3.48 +/− 0.79 ×10^−3 inch"},
      {"measurement": "Change in ear thickness, left ear (PBS)", "setting": "[1]; [4]", "value": "0.21 +/− 0.34 ×10^−3 inch"},
      {"measurement": "Change in ear thickness, right ear (OVA)", "setting": "[1]; [4]", "value": "2.48 +/− 1.05 ×10^−3 inch"},
      {"measurement": "Change in ear thickness, left ear (PBS)", "setting": "[1]; [5]", "value": "0.65 +/− 0.63 ×10^−3 inch"},
      {"measurement": "Change in ear thickness, right ear (OVA)", "setting": "[1]; [5]", "value": "4.41 +/− 0.95 ×10^−3 inch"},
      {"measurement": "Change in ear thickness, left ear (PBS)", "setting": "[1]; [6]", "value": "0.67 +/− 1.05 ×10^−3 inch"},
      {"measurement": "Change in ear thickness, right ear (OVA)", "setting": "[1]; [6]", "value": "3.92 +/− 1.00 ×10^−3 inch"},
      {"measurement": "Change in ear thickness, left ear (PBS)", "setting": "[1]; [7]", "value": "1.31 +/− 0.42 ×10^−3 inch"},
      {"measurement": "Change in ear thickness, right ear (OVA)", "setting": "[1]; [7]", "value": "4.06 +/− 0.73 ×10^−3 inch"},
      {"measurement": "Change in ear thickness, left ear (PBS)", "setting": "[1]; [8]", "value": "1.11 +/− 0.49 ×10^−3 inch"},
      {"measurement": "Change in ear thickness, right ear (OVA)", "setting": "[1]; [8]", "value": "4.57 +/− 1.58 ×10^−3 inch"},
      {"measurement": "Pixel density: Neutrophils, left ear (PBS)", "setting": "[2]; [9]", "value": "544 +/− 1044"},
      {"measurement": "Pixel density: Neutrophils, right ear (OVA)", "setting": "[2]; [9]", "value": "5605 +/− 3725"},
      {"measurement": "Pixel density: Neutrophils, left ear (PBS)", "setting": "[2]; [10]", "value": "273 +/− 399"},
      {"measurement": "Pixel density: Neutrophils, right ear (OVA)", "setting": "[2]; [10]", "value": "5535 +/− 5331"},
      {"measurement": "relative proportion of each thymocyte subset vs PBS-treated group", "setting": "thymus", "value": "not significantly different"},
      {"measurement": "reduction of the amount of 125I-CGH bound by unlabeled competitor", "setting": "TSHR", "value": "reduced the amount of ^125I-CGH bound"}
    ]}
  ]
}
